From patent US7691567B2, “Methods and compositions relating to fortilin, an anti-apoptotic molecule, and modulators of fortilin” (Board of Regents, the University of Texas System, priority 2000, dated 2010)
“Also recorded” adds a separate entry of the source. Read-outs that look alike come from different tables or passages of the source.

Legend:
PCNA = PCNA (Homo sapiens, UniProt P12004); assay: In vitro pull-down assay of Fortilin-HA with PCNA; type: binding; conditions: in vitro translated proteins, anti-HA pull-down
Sequence of PCNA (P12004 whole entry, species assumed): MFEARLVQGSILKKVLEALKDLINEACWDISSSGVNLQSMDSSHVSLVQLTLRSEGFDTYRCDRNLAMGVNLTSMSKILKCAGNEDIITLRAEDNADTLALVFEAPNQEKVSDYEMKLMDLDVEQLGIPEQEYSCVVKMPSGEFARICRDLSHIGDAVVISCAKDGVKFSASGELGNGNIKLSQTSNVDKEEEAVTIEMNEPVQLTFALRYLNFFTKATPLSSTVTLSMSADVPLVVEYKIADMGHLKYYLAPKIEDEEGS

p53 [1] = target: T1, p53 (Homo sapiens, UniProt P04637); assay: Coimmunoprecipitation of fortilin and p53 from U2OS cell lysates; type: binding; set-up: endogenous in cells; host or cells: U2OS
T1 sequence (P04637 whole entry, species assumed): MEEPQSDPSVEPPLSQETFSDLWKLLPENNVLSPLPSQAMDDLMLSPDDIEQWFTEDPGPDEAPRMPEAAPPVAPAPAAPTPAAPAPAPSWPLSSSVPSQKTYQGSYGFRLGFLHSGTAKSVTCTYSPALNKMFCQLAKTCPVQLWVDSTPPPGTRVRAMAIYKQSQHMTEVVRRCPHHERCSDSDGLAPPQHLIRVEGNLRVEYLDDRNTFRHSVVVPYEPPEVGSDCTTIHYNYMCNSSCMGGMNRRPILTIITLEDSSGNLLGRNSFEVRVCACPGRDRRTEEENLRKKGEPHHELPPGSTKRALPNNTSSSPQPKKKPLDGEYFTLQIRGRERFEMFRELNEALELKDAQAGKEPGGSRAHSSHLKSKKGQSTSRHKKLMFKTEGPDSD
Procedure: As in example 2, studies were initiated to determine whether p53 and Fortilin specifically interact in U2OS cells. Six million U2OS cells stably expressing either HA-fortilin or HA-only were suspended in lysis-binding-wash buffer (50 mM HEPES, pH7.5, 70 mM KCl, 0.5 mM ATP, 5 mM MgSO4, 1 mM DTT, 0.1% NP40, 2 mg/mL BSA, Aprotinin, PMSF, MG132 and protease inhibitor cocktail). Cells were then mechanically disrupted by nitrogen excavitation method. Cleared total cell lysates were incubated with […] anti-HA antibody (3F10, Roche), followed by the incubation with anti-mouse IgG conjugated to magnetic beads (Dynal USA) and extensive wash with lysis-binding-wash buffer.
Further experiments were conducted to determine in vivo immunoprecipitation of fortilin by p53. Twenty million U2OS cells were suspended in lysis-binding buffer (50 mM HEPES, pH7.5, 70 mM KCl, 0.5 mM ATP, 5 mM MgSO4, 1 mM DTT, 0.001% NP40, 2 mg/mL BSA, Aprotinin, PMSF, MG132 and protease inhibitor cocktail). Cells were then mechanically disrupted by nitrogen excavitation method. Cleared total cell lysates were divided equally into two eppendorf tubes. To the first tube, anti-p53 antibody (DO-1, […]) was added, while […] control monoclonal antibody was added to the second tube. After incubation, formed complexes were precipitated by goat anti-mouse IgG conjugated to magnetic beads (Dynal USA), followed by extensive wash. […]

Bak = target: T2, Bak (Homo sapiens, UniProt Q16611); assay: In vitro pull-down assay of Fortilin-HA with Bak; type: binding; conditions: in vitro translated proteins, anti-HA pull-down
T2 sequence (Q16611 1-211): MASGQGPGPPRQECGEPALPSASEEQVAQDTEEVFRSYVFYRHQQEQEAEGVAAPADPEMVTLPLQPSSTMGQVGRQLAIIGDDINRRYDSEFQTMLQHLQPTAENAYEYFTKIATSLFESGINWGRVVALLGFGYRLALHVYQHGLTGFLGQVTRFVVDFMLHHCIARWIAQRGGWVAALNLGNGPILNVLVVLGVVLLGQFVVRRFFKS

[2] = tested on: p53 transactivation of Bax gene; assay: p53 transactivation of Bax gene, p-Bax-RE-Luc luciferase reporter in H1299 cells; type: cell-based
Procedure: The ability of Fortilin to interfere with transactivation of the Bax gene by p53 was investigated. Non-small cell lung cancer cell line H1299 cells were transfected with p53-pcDNA3, LacZ-pFLAG, p-Bax-RE-Luc (a plasmid encoding the Luciferase gene under the control of the Bax responsive element) and pFLAG vector encoding Bcl-2, MCL1, Fortilin or truncated Fortilin as indicated in FIG. 6. Twenty-four hours after the transfection, luciferase activity was measured and normalized to the β-galactosidase activity, the latter representing transfection efficiency.
Next, studies were conducted to determine whether the inhibition was dosage dependent. H1299 cells were transfected with p53-pcDNA3, LacZ-pFLAG, p-Bax-RE-Luc and various amount of Fortilin-pFLAG. The total amount of DNA added was adjusted by the addition of empty pFLAG vector. Twenty-four hours after the transfection, luciferase activity was measured and normalized to the β-galactosidase activity.

p53 [3] = target: T1, p53; assay: GST-Fortilin in vitro pull-down of labeled p53; type: binding; conditions: 35S-labeled p53, 4° C. 90 minutes
Procedure: Studies were initiated to determine whether p53 and Fortilin specifically interact. Either recombinant GST-Fortilin or GST only were incubated at 4° C. for 90 minutes with in vitro translated, [^35S-Met]-labeled p53, MCL1 or Bcl-xL, in Binding Buffer (50 mM HEPES, pH7.5, 70 mM KCl, 0.5 mM ATP, 5 mM MgSO4, 1 mM DTT, 0.001% NP40, 50 μM MG132, 2 μg/mL BSA, Aporotinin, PMSF and protease inhibitor cocktail (Sigma Co., St. Louis, Mo.)). The GST or GST-Fortilin was then pulled down with Glutathione Sepharose 4B beads (Amersham-Pharmacia Biotechnologies). Formed complexes were extensively washed and eluted into SDS loading buffer. The eluted proteins were subjected to SDS-PAGE in duplicate. The first SDS gel was stained with Commassie Blue to confirm the successful immunoprecipitation of GST and GST-Fortilin (IP). […] Thus, there is a specific interaction present between Fortilin and p53, between Fortilin and MCL1.

U2OS cells = conditions: for cytotoxicity index relative to control transfectants: U2OS stable transfectants of HA-tagged Fortilin or deletion mutants, 5 μg/mL etoposide 48 hours
Excerpt: Generation and characterization of U2OS cells stably expressing Fortilin. U2OS cells were transfected with empty pcDNA6, a mammalian expression vector containing a blasticidine resistance gene (Invitrogen, Carlsbad, Calif.), or with pcDNA6 vector encoding wild-type Fortilin, by using FuGENE6 (Roche Molecular Biochemicals) according to the manufacturer's instructions. Transfected cells were selected for approximately 3 weeks and characterized by Western blot analysis. For the cytotoxicity assay, U2OS cells stably expressing wild-type Fortilin (U2OS.F) and U2OS cells stably harboring empty pcDNA6 (U2OS.E) were seeded in a 96 well plate in quadruplicate. For the investigation of dose response, cells were challenged with various concentrations of etoposide (0-20 μg/mL) for 48 hours. For the time course study, cells were challenged with 5 μg/mL of etoposide and harvested after various incubation periods (0-96 hours). In both cases, the cell media were assayed for the lactate dehydrogenase (LDH) activity released from the cytosol of damaged cells, using a cytotoxicity detection kit (Roche Molecular Biochemicals) according to the manufacturer's instructions. The cytotoxicity index was calculated as follows: (LDH activity in the media−background LDH activity)÷(LDH activity in the medium of cells lysed by 1% Triton X-100−background LDH activity)×100.
Cell death assay. U2OS cells stably expressing Fortilin or its mutants were seeded in 96-well plates in triplicate. Cells were then challenged with 5 μg/mL of etoposide (Sigma) for 48 hours. Then the cell media were assayed for the lactate dehydrogenase (LDH) activity released from the cytosol of damaged cells, using a Cytotoxicity Detection Kit (Roche Molecular Biochemicals), according to the manufacturer's instructions. The cytotoxicity index was calculated as follows: (LDH activity in the media−background LDH activity)/(LDH activity in the medium of the cells lysed by 1% Triton X-100−background LDH activity)×100.
Statistical analysis. For analysis of the statistical significance of differences in cytotoxicity indices among cells stably transfected with Fortilin, its mutants or control plasmids, Student's t-test was performed using a commercial software (Minitab Inc., State College, Pa.). In all cases, a P-value less than 0.05 was considered to be statistically significant.

MCL1 = MCL1 (Homo sapiens, UniProt Q07820); assay: In vitro pull-down assay of HA-tagged Fortilin or mutants with MCL1; type: binding; conditions: in vitro translated 35S-labeled proteins, anti-HA pull-down
Sequence of MCL1 (Q07820 whole entry): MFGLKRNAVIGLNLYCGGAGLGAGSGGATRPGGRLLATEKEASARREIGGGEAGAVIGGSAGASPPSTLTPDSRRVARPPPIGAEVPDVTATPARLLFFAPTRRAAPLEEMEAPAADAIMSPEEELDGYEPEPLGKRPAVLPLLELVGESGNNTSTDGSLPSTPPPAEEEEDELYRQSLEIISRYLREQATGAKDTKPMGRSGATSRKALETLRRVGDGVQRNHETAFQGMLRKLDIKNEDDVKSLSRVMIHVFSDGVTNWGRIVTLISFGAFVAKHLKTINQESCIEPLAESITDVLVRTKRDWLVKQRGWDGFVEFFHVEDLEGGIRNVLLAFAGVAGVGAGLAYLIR

Substance: Fortilin: 172 amino acid anti-apoptotic polypeptide (SEQ ID NO:2), overexpressed from expression constructs or used as recombinant/in vitro translated protein
- co-immunoprecipitation of PCNA with Fortilin in vitro (PCNA): not PCNA
- co-precipitation of fortilin and p53 in vivo (p53 [1]): The presence of immunoprecipitated p53 was necessary and sufficient to co-precipitate fortilin
- co-immunoprecipitation of Bak with Fortilin in vitro (Bak): not
- inhibition of p53 transactivation of Bax gene (luciferase normalized to β-galactosidase) ([2]; twenty-four hours after transfection): inhibited p53 transactivation of the Bax gene
- inhibitory effect on p53 transactivation of Bax gene versus amount of Fortilin transfected ([2]; various amount of Fortilin-pFLAG): stronger inhibitory effects on p53 transactivation of the Bax gene; also recorded: larger inhibitory effect on p53 transactivation of Bax gene
- co-immunoprecipitation of p53 with Fortilin in vitro (p53 [3]): co-immunoprecipitated with Fortilin in vitro
- cytotoxicity index relative to control transfectants (U2OS cells; listed as wild type Fortilin): significantly lower
- cytotoxicity index relative to control transfectants (U2OS cells; listed as wild-type fortilin): significantly lower than the cytotoxicity index of control cells
- etoposide-induced cytotoxicity (LDH cytotoxicity index), time course (U2OS cells; U2OS stably expressing Fortilin vs empty vector, 5 μg/mL etoposide, 48, 72, 96 hours): lesser amounts of etoposide-induced cytotoxicity after incubation periods of 48, 72, and 96 hours; also recorded: significantly less cytotoxicity at various time points after the etoposide challenge
- etoposide-induced cytotoxicity (LDH cytotoxicity index), dose response (U2OS cells; U2OS stably expressing Fortilin vs empty vector, etoposide 2.5, 5, 10, 20 μg/mL, 48 hours): significantly lesser amounts of etoposide-induced cytotoxicity; also recorded: significantly less cytotoxicity over the wide range of etoposide concentrations
- interaction / co-immunoprecipitation with MCL1 in vitro (MCL1): co-immunoprecipitated with Fortilin in vitro
- interaction / co-immunoprecipitation with MCL1 in vitro (MCL1; listed as full-length Fortilin): co-immunoprecipitated MCL1 in vitro; also recorded: interacted
